T1: CTLA-4-His (human, UniProt P16410 36-161, limits assumed, N-linked glycosylation at N113 and N145 (heavily glycosylated))
T1 construct: also called antigen CTLA-4-His; not shown: His tag
T1 sequence: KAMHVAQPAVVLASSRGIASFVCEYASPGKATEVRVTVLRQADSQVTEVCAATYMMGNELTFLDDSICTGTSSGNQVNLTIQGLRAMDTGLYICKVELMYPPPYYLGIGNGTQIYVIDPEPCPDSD

T2: CTLA-4 WT expressed on 293T cells (human, UniProt P16410 36-223, N-linked glycosylation at N113 and N145)
T2 construct: also called wild type CTLA-4; Flag-tagged CTLA-4 WT
T2 sequence: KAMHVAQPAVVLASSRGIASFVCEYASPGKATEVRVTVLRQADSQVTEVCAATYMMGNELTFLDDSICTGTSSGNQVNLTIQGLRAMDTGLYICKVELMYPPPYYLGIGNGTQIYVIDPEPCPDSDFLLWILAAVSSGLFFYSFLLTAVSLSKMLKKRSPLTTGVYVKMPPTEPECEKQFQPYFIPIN


Key:
CTLA-4-His [1] = target: T1, CTLA-4-His; test: Octet BLI, antibody loaded on sensor, 1:1 fit
Description: KD determination and binning by Octet. […] Baseline was established in PBS containing 1 mg/ml bovine serum albumin (assay buffer), the association step was performed by submerging the sensors in a single concentration of analyte in assay buffer. Dissociation was performed and monitored in fresh assay buffer. All experiments were performed with sensor shaking at 1,000 rpm. ForteBio's data analysis software was used to fit the data to a 1:1 binding model to extract an association rate and dissociation rate. The KD was calculated using the ratio kd/kₐ. In a typical epitope binning assay, antigen CTLA-4-His (10 nM) was preincubated with the second antibody (10 nM) for 1 h at room temperature. Control antibody (20 nM) was loaded onto AMC sensors (ForteBio) and remaining Fc-binding sites on the sensor were blocked with a whole mouse IgG antibody (Jackson ImmunoResearch). The sensors were exposed to preinculated antigen-second antibody mixture. Raw data was processed using ForteBio's Data Analysis Software 7.0 and the antibody pairs were assessed for competitive binding.
The baseline was established in PBS containing 1 mg/mL bovine serum albumin (assay buffer), and the association step was performed by submerging the sensors in a single concentration of analyte in assay buffer. Dissociation was performed and monitored in fresh assay buffer. All experiments were performed with the sensor shaking at 1,000 rotations per minute. ForteBio (Menlo Park, Calif., USA) data analysis software was used to fit the data to a 1:1 binding model to extract an association rate and dissociation rate. KD was calculated using the ratio kd:ka.

[2] = target: T2, CTLA-4 WT expressed on 293T cells; test: IncuCyte, inhibition of CD86-Fc binding to 293T cells expressing CTLA-4
Description: (§1) The green fluorescent signals were measured every 2 hours and quantified using an IncuCyte Zoom system (Essen BioScience).

[3] = target: T3, CTLA-4 2NQ (non-glycosylated form) expressed in 293T cells (human, UniProt P16410 36-223); test: blot under native condition of 293T cells expressing flag-tagged CTLA-4
T3 construct: also called CTLA-4 2NQ mutant; unglycosylated CTLA-4

[4] = target: T4, CTLA-4 N113Q mutant expressed in 293T cells (human, UniProt P16410 36-223); test: as above
T4 construct: Flag-tagged; single-glycosylated (only N145 can carry a glycan); Tested by Western blot

[5] = target: T5, CTLA-4 N145Q mutant expressed in 293T cells (human, UniProt P16410 36-223); test: as above
T5 construct: Flag-tagged; single-glycosylated (only N113 can carry a glycan); Tested by Western blot

CTLA-4-His [6] = target: T1, CTLA-4-His; test: Biacore X100 SPR, antibody captured on CM5 chip, six concentrations of CTLA4, 1:1 fit
Description: KD determination was performed via surface plasmon resonance using a Biacore X100 instrument (GE Healthcare, Uppsala, Sweden). […] was immobilized on a research-grade CM5 chip using standard procedures, and antibody was flowed over the chip at 2 μg/mL in HBS-EP⁺ buffer. Next, six concentrations of CTLA4, each a 2-fold dilution, were passed over the chip. Sensorgram data were analyzed by Biacore X100 evaluation software version 2.0.1 with 1:1 binding kinetics.

[7] = target: T2, CTLA-4 WT expressed on 293T cells; test: IncuCyte, inhibition of CD86-Fc binding to CTLA-4-expressing cells; human chimera hSTC1807 (FIG. 8B), not the mouse STC1807 of FIG. 7B (2.189 µg/mL)
Description: as §1

Kd (CTLA-4-His [1]) [nM]	koff (CTLA-4-His [1]) [s⁻¹]	kon (CTLA-4-His [1]) [M⁻¹ s⁻¹]	EC50 [2] [µg/mL]	binding result [3]	binding result [4]	binding result [5]	Kd (CTLA-4-His [6]) [nM]	koff (CTLA-4-His [6]) [s⁻¹]	kon (CTLA-4-His [6]) [M⁻¹ s⁻¹]	EC50 [7] [µg/mL]	Binder
1.86	0.000499	268000	2.19	no binding	no binding	binds	0.469	0.000217	463000	–	anti-glycCTLA-4 monoclonal antibody STC1807 (antibody, V domains shown, Mouse hybridoma monoclonal antibody (BALB/c), kappa light chain; also called MAb STC1807) VH: EVQLQQSGAELVRPGALVKLSCKASGFNIKDYYMNWVKQRPEQGLEWIGWIDPENGNTIYDPKFQGKASIIADTSSNTAYLQLSSLTSEDTAVYYCARKWSYTMDYWGQGTSVTVSS VL: QIVLTQSPALMSASPGEKVTMTCSASSFVGYMYWYQQKPRSSPKPWIYLTSNLASGVPGRFSGSGSGTSYSLTISNMEAEDAATYYCQQWSSNPLTFGAGTKLELK
–	–	–	–	–	–	–	–	–	–	0.331	human chimera of STC1807 (hSTC1807) (antibody, V domains shown, domain: kappa constant region of pFUSEss-CLIg-hK; Mouse constant regions replaced by human ones; also called human chimera STC1807; chimeric antibody (hSTC1807); not shown: human IgG1 constant region (CH1-CH3) from vector pFUSEss-CHIg-hG1 (Invivogen)) VH: EVQLQQSGAELVRPGALVKLSCKASGFNIKDYYMNWVKQRPEQGLEWIGWIDPENGNTIYDPKFQGKASIIADTSSNTAYLQLSSLTSEDTAVYYCARKWSYTMDYWGQGTSVTVSS VL: QIVLTQSPALMSASPGEKVTMTCSASSFVGYMYWYQQKPRSSPKPWIYLTSNLASGVPGRFSGSGSGTSYSLTISNMEAEDAATYYCQQWSSNPLTFGAGTKLELKR

Source: patent US20220411511A1 (STCUBE, published 2022)
